Reference: US20210054072A1 (ALLAKOS, published 2021)

Assays:
Siglec-7-ECD [1] = biological target: T1, Siglec-7-ECD (human, UniProt Q9Y286 19-353); assay: bio-layer interferometry (ForteBio), 25 C, antibody captured on the sensor, Siglec-7-ECD as analyte 50 to 1.56 nM, 1:1 global fit
T1 construct: also called p75; AIRM
Procedure: Antibody binding analysis was carried out by bio-layer interferometry (ForteBio). […] Antibodies were captured on anti-mouse kinetic sensors at 0.5 ug/mL; Siglec-7-ECD was used as analyte and diluted in assay buffer from 50 nM to 1.56 nM with 2× dilutions. Two-minute associations were conducted, followed by 10-minute dissociations. Results were determined relative to a control empty reference AHC sensor, and analyzed using ForteBio analysis software with 1:1 global fit parameters.

Siglec-7-ECD-Fc = biological target: T2, Siglec-7-ECD-Fc (human, UniProt Q9Y286 19-353); assay: ligand blocking assay, flow cytometry: antibody (40 nM to 40 pM) mixed with 10 nM Siglec-7-ECD-Fc; blocked: binding of Siglec-7-ECD-Fc to its ligands on A375 melanoma cells
T2 construct: also called recombinant Siglec-7-Fc; Siglec-7-ECD-huFc; not shown: human Fc (huFc)
Procedure: Recombinant Siglec-7-Fc was added to A375 cells in the presence of anti-Siglec-7 antibodies at increasing concentrations and binding of the complex was detected on the cell surface.
Human melanoma cell line A375, which expresses high level of ligands for Siglec-7, was used to determine the blocking activity of anti-Siglec-7 antibodies in a cell based assay. Two-fold serial dilutions of anti-Siglec-7 antibodies (40 nM to 40 pM) were combined with 10 nM Siglec-7-ECD-Fc in FACS buffer (PBS/2% BSA) and incubated on ice for 30 minutes. 2.5×10e4 A375 cells per well were added to round bottom 96-well tissue culture plates in FACS buffer, plates were centrifuged at 400 g for 2 min, supernatant was removed and cells were re-suspended in 100 ul of the antibody-Siglec-7 complexes. After a 1 hour incubation on ice, cells were washed twice and incubated for 30 minutes with goat anti-human F(ab′)2 fragment conjugated to AF647 (Jackson IR labs) at 1 ug/ml in FACS buffer. After two more washes, cells were fixed in PBS/2% PFA and acquired on a Novocyte flow cytometer (ACEA biosciences). IC₅₀ values for blocking were determined based on plotting mean fluorescence in the APC channel and analysis using Prism Graphpad software.

Siglec-7-ECD [2] = biological target: T1, Siglec-7-ECD; assay: bio-layer interferometry (ForteBio), 25 C, antibody captured on the sensor, Siglec-7-ECD as analyte 50 to 1.56 nM, 1:1 global fit; the same value stands beside the sensorgrams ('QA79 KD=706pM', four traces up to about 0.16 nm, visible dissociation to 780 s)
[3] = biological target: Siglec-7 on primary human NK cells (human, UniProt Q9Y286 19-467); assay: cell-based or functional assay
Chain of Siglec-7 on primary human NK cells (Q9Y286 19-467 limits assumed): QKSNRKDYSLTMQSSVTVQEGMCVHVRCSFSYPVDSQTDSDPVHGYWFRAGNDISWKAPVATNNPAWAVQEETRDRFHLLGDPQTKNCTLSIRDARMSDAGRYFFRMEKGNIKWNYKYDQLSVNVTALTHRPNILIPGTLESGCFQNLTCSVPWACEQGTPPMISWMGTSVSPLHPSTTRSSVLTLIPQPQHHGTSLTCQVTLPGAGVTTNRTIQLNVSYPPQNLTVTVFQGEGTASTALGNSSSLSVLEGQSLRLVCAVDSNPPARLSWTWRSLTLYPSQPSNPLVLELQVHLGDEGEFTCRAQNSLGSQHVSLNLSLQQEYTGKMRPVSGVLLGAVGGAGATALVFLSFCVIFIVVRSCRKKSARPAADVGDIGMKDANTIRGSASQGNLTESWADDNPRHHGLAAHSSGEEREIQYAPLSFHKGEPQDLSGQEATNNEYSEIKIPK

T1 sequence (Q9Y286 19-353 limits assumed): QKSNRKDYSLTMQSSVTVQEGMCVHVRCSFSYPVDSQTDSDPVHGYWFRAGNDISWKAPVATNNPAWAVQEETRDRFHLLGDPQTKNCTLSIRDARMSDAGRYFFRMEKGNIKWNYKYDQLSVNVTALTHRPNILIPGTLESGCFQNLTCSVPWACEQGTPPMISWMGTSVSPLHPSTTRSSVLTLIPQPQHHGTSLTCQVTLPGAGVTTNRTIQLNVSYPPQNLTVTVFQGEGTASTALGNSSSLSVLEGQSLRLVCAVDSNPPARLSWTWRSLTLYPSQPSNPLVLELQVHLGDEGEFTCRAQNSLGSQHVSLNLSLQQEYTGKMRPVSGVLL
T2 sequence (Q9Y286 19-353): as the sequence (Q9Y286 19-353 limits assumed) above

Row | Molecule | Kd (Siglec-7-ECD [1]) | IC50 (Siglec-7-ECD-Fc) | Kd (Siglec-7-ECD [2]) | IC50 (read off the curve), internalization of Siglec-7 [3]
1 | anti-Siglec-7 antibody QA79 | – | 7.49 nM | 0.706 nM | –
2 | 5215-2 (antibody, V domains shown, anti-Siglec-7 monoclonal antibody of the panel) VH: DVQLQESGPGLVKPSQSLSLTCTVTGYSITSDYVWTWIRQFPGNKLEWMGYITYSDSTNYNPSLKSRLSITRDTSKNQFFLQLSSVTTEDTATYFCARSLTGNYFDYWGQGTTLTVSS VL: VIVLTQSPASLEVSLGQRATISCRASQTVRISSYSYMNWYQQKPGQPPKLLIKYASNLESGVPARFSGSGSGTDFTLNIHPVEEEDTATYYCQHSWKIPTFGGGTKLEIK | 0.149 nM | 4.12 nM | – | –
3 | 5215-9 (antibody, V domains shown, anti-Siglec-7 monoclonal antibody of the panel) VH: EVQLQQSGAELVKSGASVKLSCTASGFNIKDTYMHWVKQRPEKGLEWIGWIDPADGHTKYDPKFQGKATITADTSSNTAYLHLSSLTSEDAAVYYCPRGGSSPYFDYWGQGTTLTVSS VL: DIVLTQSPASLTISLGQRATISCRASQSVSTSTYSYIHWYQQKPGQPPKLLIKYASNLASGVPARFSGSGSGTDFSLSIHPMEEEDTATYYCQHSWKIPFTFGSGTKLEIK | 0.001 nM | 5.33 nM | – | –
4 | 5215-13 (antibody, V domains shown, anti-Siglec-7 monoclonal antibody of the panel) VH: EVQLQQSGAELVKPGASVKLSCTVSGFNFKDTYIHWVKQRPEQGLEWIGRIDPANGNTKYASKFQDKATITADTSSNTVYMQLSSLTSEDTAVYYCTRGWDGYYFDCWGQGTTLTVSS VL: DIVLTQSPASLVVSLGLRATISCRASQSVSTSSHSYLHWYQQKPGQPPKLLIKYASNLASGVPARFSGSGSGADFTLNIHPVEEEDTATYYCQHSWEIPYTFGGGTKLEIK | 0.99 nM | 1.32 nM | – | –

Further lines, results first:

Row | Kd (Siglec-7-ECD [1]) | IC50 (Siglec-7-ECD-Fc) | Kd (Siglec-7-ECD [2]) | IC50 (read off the curve), internalization of Siglec-7 [3] | Molecule
5 | 0.086 nM | – | – | – | anti-Siglec-7 antibody Z176
6 | 0.422 nM | 4.26 nM | – | – | anti-Siglec-7 antibody S7.7
7 | – | – | – | ~0.01 nM | monoclonal antibody 16H11 (antibody, V domains shown) VH: QVQLHQSGAELVKPGASVKISCKGSGYDFSNFWMNWVKQRPGKGLEWIGQIYPGDGEIKYNGKFKGKATLTADESSSTAYIHLSSLTSEDSAVYFCARDDYLRAMDYWGQGTSVTVSS VL: DIQMTQSPASLSASVGETVTITCRASGNIHNYLAWFQQKQGKSPHFLVYSAKALADGVPSRFSGSGSGTQYSLKINSLQPEDFGTYYCQHFWSSPYTFGGGTKLEIK
8 | – | – | – | ~0.01 nM | monoclonal antibody 8A2 (antibody, V domains shown) VH: QVQLKESGPGLVAPSQSLSITCTVSGFSLTTYGVDWVRQFPGKGLEWLGVIWGGGNTNYNSALMSRLSISKDTSKSQVFLKMNSLQTDDTAMYYCAKHKGTSHAMEYWGQGTSVTVSS VL: QIVLTQSPAIMSASPGEKVTMTCSASSRVIFMYWYQQKPGSSPRLLIYDTSNLASGVPVRFSGGGSGTSYSLTISRMEAEDAATYYCQQWSSYPPTFGAGTKLELK
9 | – | – | – | ~0.01 nM | monoclonal antibody 3F1 (antibody, V domains shown) VH: EFQLQQSGPEMVKPGASVKMSCKASGDSFTDYKINWVKQNNGKSLEWIGVINPDSGTTSYNQIFEGKATLTVDQSSSTAYMQVNRLTSEDSAVYYCTTWDDYSFYAMDYWGQGTSVTVSS VL: DVLMTQTPLSLPVSLGDQASISCRSSQNIVHSNGNTYLEWFLQKPGQSPKLLIYKVSNRFSGVPDRFSGSGSGTDFTLKISRVEAEDLGVYYCFQGSHIPWTFGGGTKLEIK
